Laboratory results reported in patent publication US20250186594A1.

Key:
[1] = molecular target: Native IL-18 wild-type (SEQ ID NO: 1, native sequence) (human) (UniProt Q14116)
[2] = molecular target: IL-18 variant SEQ ID NO: 221 (V11I, C38A, K53A, C76A, D110A, C127A) (human) (UniProt Q14116); assay: cell-based or functional assay
[3] = molecular target: IL-18 variant SEQ ID NO: 207 (V11I, C38A, M51G, K53A, C76A, C127A) (human) (UniProt Q14116); assay: cell-based or functional assay
[4] = molecular target: IL-18 variant SEQ ID NO: 63 (E6K, C38A, K53A, C76A, C127A) (human) (UniProt Q14116); assay: cell-based or functional assay
IL-18 variant SEQ ID NO: 63 (E6K, C38A, K53A, C76A, C127A) (human), sequence (Q14116 other isoform, or with tags, fused parts or gaps C38A K53A C76A C127A C38A K53A C76A C127A): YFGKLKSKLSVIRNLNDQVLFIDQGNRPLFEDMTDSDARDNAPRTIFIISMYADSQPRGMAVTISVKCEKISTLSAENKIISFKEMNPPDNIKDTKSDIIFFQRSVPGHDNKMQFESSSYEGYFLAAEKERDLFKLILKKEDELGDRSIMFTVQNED

[5] = molecular target: IL-18 variant SEQ ID NO: 209 (F2A, V11I, C38A, K53A, C76A, C127A) (human) (UniProt Q14116); assay: cell-based or functional assay
IL-18 variant SEQ ID NO: 209 (F2A, V11I, C38A, K53A, C76A, C127A) (human), sequence (Q14116 other isoform, or with tags, fused parts or gaps V11I C38A K53A C76A C127A V11I C38A K53A C76A C127A): as the sequence (Q14116 other isoform, or with tags, fused parts or gaps C38A K53A C76A C127A C38A K53A C76A C127A) above, with F2A, K6E, V11I counted along it

[6] = molecular target: IL-18 variant SEQ ID NO: 28 with 30 kDa PEG (E6K, C38A, K53A, T63A, C76A, C127A, C68-30kPEG) (human) (UniProt Q14116); assay: cell-based or functional assay
IL-18 variant SEQ ID NO: 28 with 30 kDa PEG (E6K, C38A, K53A, T63A, C76A, C127A, C68-30kPEG) (human), sequence (Q14116 other isoform, or with tags, fused parts or gaps C38A K53A T63A C76A C127A C38A K53A T63A C76A C127A): as the sequence (Q14116 other isoform, or with tags, fused parts or gaps C38A K53A C76A C127A C38A K53A C76A C127A) above, with T63A counted along it

[7] = molecular target: IL-18 variant SEQ ID NO: 62 (E6K, C38A, K53A, C127A) (human) (UniProt Q14116); assay: cell-based or functional assay
IL-18 variant SEQ ID NO: 62 (E6K, C38A, K53A, C127A) (human), sequence (Q14116 other isoform, or with tags, fused parts or gaps C38A K53A C127A C38A K53A C127A): as the sequence (Q14116 other isoform, or with tags, fused parts or gaps C38A K53A C76A C127A C38A K53A C76A C127A) above, with A76C counted along it

[8] = molecular target: IL-18 variant SEQ ID NO: 30 with 5 kDa PEG (E6K, V11I, C38A, K53A, T63A, C76A, C127A, C68-5kPEG) (human) (UniProt Q14116); assay: cell-based or functional assay
IL-18 variant SEQ ID NO: 30 with 5 kDa PEG (E6K, V11I, C38A, K53A, T63A, C76A, C127A, C68-5kPEG) (human), sequence (Q14116 other isoform, or with tags, fused parts or gaps with the stated changes): as the sequence (Q14116 other isoform, or with tags, fused parts or gaps C38A K53A C76A C127A C38A K53A C76A C127A) above, with V11I, T63A counted along it

[9] = molecular target: IL-18 variant SEQ ID NO: 59 (E6K, C38A, K53A) (human) (UniProt Q14116); assay: cell-based or functional assay
IL-18 variant SEQ ID NO: 59 (E6K, C38A, K53A) (human), sequence (Q14116 other isoform, or with tags, fused parts or gaps C38A K53A C38A K53A): as the sequence (Q14116 other isoform, or with tags, fused parts or gaps C38A K53A C76A C127A C38A K53A C76A C127A) above, with A76C, A127C counted along it

[10] = molecular target: IL-18 variant SEQ ID NO: 57 (E6K, C38S, K53A) (human) (UniProt Q14116); assay: cell-based or functional assay
IL-18 variant SEQ ID NO: 57 (E6K, C38S, K53A) (human), sequence (Q14116 other isoform, or with tags, fused parts or gaps C38S K53A C38S K53A): as the sequence (Q14116 other isoform, or with tags, fused parts or gaps C38A K53A C76A C127A C38A K53A C76A C127A) above, with A38S, A76C, A127C counted along it

[11] = molecular target: IL-18 variant SEQ ID NO: 214 (V11I, D37A, C38A, K53A, C76A, C127A) (human) (UniProt Q14116); assay: cell-based or functional assay
IL-18 variant SEQ ID NO: 214 (V11I, D37A, C38A, K53A, C76A, C127A) (human), sequence (Q14116 37-193 V47I/D73A/C74A/K89A/C112A/C163A): as the sequence (Q14116 other isoform, or with tags, fused parts or gaps C38A K53A C76A C127A C38A K53A C76A C127A) above, with K6E, V11I, D37A counted along it

[12] = molecular target: IL-18 variant SEQ ID NO: 228 (V11I, C38A, C76A, S105I, C127A) (human) (UniProt Q14116); assay: cell-based or functional assay
IL-18 variant SEQ ID NO: 228 (V11I, C38A, C76A, S105I, C127A) (human), sequence (Q14116 37-193 V47I/C74A/C112A/S141I/C163A): as the sequence (Q14116 other isoform, or with tags, fused parts or gaps C38A K53A C76A C127A C38A K53A C76A C127A) above, with K6E, V11I, A53K, S105I counted along it

[13] = molecular target: IL-18 variant SEQ ID NO: 217 (V11I, C38A, N41A, K53A, C76A, C127A) (human) (UniProt Q14116); assay: cell-based or functional assay
IL-18 variant SEQ ID NO: 217 (V11I, C38A, N41A, K53A, C76A, C127A) (human), sequence (Q14116 37-193 V47I/C74A/N77A/K89A/C112A/C163A): as the sequence (Q14116 other isoform, or with tags, fused parts or gaps C38A K53A C76A C127A C38A K53A C76A C127A) above, with K6E, V11I, N41A counted along it

[14] = molecular target: IL-18 variant SEQ ID NO: 219 (V11I, C38A, K53A, C76A, G108A, C127A) (human) (UniProt Q14116); assay: cell-based or functional assay
IL-18 variant SEQ ID NO: 219 (V11I, C38A, K53A, C76A, G108A, C127A) (human), sequence (Q14116 37-193 V47I/C74A/K89A/C112A/G144A/C163A): as the sequence (Q14116 other isoform, or with tags, fused parts or gaps C38A K53A C76A C127A C38A K53A C76A C127A) above, with K6E, V11I, G108A counted along it

[15] = molecular target: IL-18 variant SEQ ID NO: 223 (K8E, V11I, C38A, C76A, Q103R, C127A) (human) (UniProt Q14116); assay: cell-based or functional assay
IL-18 variant SEQ ID NO: 223 (K8E, V11I, C38A, C76A, Q103R, C127A) (human), sequence (Q14116 other isoform, or with tags, fused parts or gaps V11I C38A C76A Q103R C127A V11I C38A C76A Q103R C127A): as the sequence (Q14116 other isoform, or with tags, fused parts or gaps C38A K53A C76A C127A C38A K53A C76A C127A) above, with K6E, K8E, V11I, A53K, Q103R counted along it

[16] = molecular target: IL-18 variant SEQ ID NO: 30 with 10 kDa PEG (E6K, V11I, C38A, K53A, T63A, C76A, C127A, C68-10kPEG) (human) (UniProt Q14116); assay: cell-based or functional assay
IL-18 variant SEQ ID NO: 30 with 10 kDa PEG (E6K, V11I, C38A, K53A, T63A, C76A, C127A, C68-10kPEG) (human), sequence (Q14116 other isoform, or with tags, fused parts or gaps with the stated changes): as the sequence (Q14116 other isoform, or with tags, fused parts or gaps C38A K53A C76A C127A C38A K53A C76A C127A) above, with V11I, T63A counted along it

[17] = molecular target: IL-18 variant SEQ ID NO: 59 with 30 kDa PEG (E6K, C38A, K53A, C68-30kDPEG) (human) (UniProt Q14116); assay: cell-based or functional assay
IL-18 variant SEQ ID NO: 59 with 30 kDa PEG (E6K, C38A, K53A, C68-30kDPEG) (human), sequence (Q14116 other isoform, or with tags, fused parts or gaps C38A K53A C38A K53A): as the sequence (Q14116 other isoform, or with tags, fused parts or gaps C38A K53A C76A C127A C38A K53A C76A C127A) above, with A76C, A127C counted along it

[18] = molecular target: IL-18 variant SEQ ID NO: 226 (V11I, C38A, S55R, C76A, C127A) (human) (UniProt Q14116); assay: cell-based or functional assay
IL-18 variant SEQ ID NO: 226 (V11I, C38A, S55R, C76A, C127A) (human), sequence (Q14116 37-193 V47I/C74A/S91R/C112A/C163A): as the sequence (Q14116 other isoform, or with tags, fused parts or gaps C38A K53A C76A C127A C38A K53A C76A C127A) above, with K6E, V11I, A53K, S55R counted along it

[19] = molecular target: IL-18 variant SEQ ID NO: 60 (E6K, C38Q, K53A) (human) (UniProt Q14116); assay: cell-based or functional assay
IL-18 variant SEQ ID NO: 60 (E6K, C38Q, K53A) (human), sequence (Q14116 other isoform, or with tags, fused parts or gaps C38Q K53A C38Q K53A): as the sequence (Q14116 other isoform, or with tags, fused parts or gaps C38A K53A C76A C127A C38A K53A C76A C127A) above, with A38Q, A76C, A127C counted along it

[20] = molecular target: IL-18 variant SEQ ID NO: 220 (V11I, C38A, K53A, C76A, H109A, C127A) (human) (UniProt Q14116); assay: cell-based or functional assay
IL-18 variant SEQ ID NO: 220 (V11I, C38A, K53A, C76A, H109A, C127A) (human), sequence (Q14116 37-193 V47I/C74A/K89A/C112A/H145A/C163A): as the sequence (Q14116 other isoform, or with tags, fused parts or gaps C38A K53A C76A C127A C38A K53A C76A C127A) above, with K6E, V11I, H109A counted along it

[21] = molecular target: IL-18 variant SEQ ID NO: 5 (E6K, V11I, C38A, K53A, T63A, C68A, C76A, M86C, C127A) (human) (UniProt Q14116); assay: cell-based or functional assay
IL-18 variant SEQ ID NO: 5 (E6K, V11I, C38A, K53A, T63A, C68A, C76A, M86C, C127A) (human), sequence (Q14116 other isoform, or with tags, fused parts or gaps with the stated changes): as the sequence (Q14116 other isoform, or with tags, fused parts or gaps C38A K53A C76A C127A C38A K53A C76A C127A) above, with V11I, T63A, C68A, M86C counted along it

[22] = molecular target: Native IL-18 wild-type (SEQ ID NO: 1, native sequence) (human) (UniProt Q14116); assay: cell-based or functional assay
[23] = molecular target: IL-18 variant SEQ ID NO: 30 with 30 kDa PEG (E6K, V11I, C38A, K53A, T63A, C76A, C127A, C68-30kPEG) (human) (UniProt Q14116); assay: cell-based or functional assay
IL-18 variant SEQ ID NO: 30 with 30 kDa PEG (E6K, V11I, C38A, K53A, T63A, C76A, C127A, C68-30kPEG) (human), sequence (Q14116 other isoform, or with tags, fused parts or gaps with the stated changes): as the sequence (Q14116 other isoform, or with tags, fused parts or gaps C38A K53A C76A C127A C38A K53A C76A C127A) above, with V11I, T63A counted along it

[24] = molecular target: IL-18 variant SEQ ID NO: 229 (V11I, C38A, C76A, S105K, C127A) (human) (UniProt Q14116); assay: cell-based or functional assay
IL-18 variant SEQ ID NO: 229 (V11I, C38A, C76A, S105K, C127A) (human), sequence (Q14116 37-193 V47I/C74A/C112A/S141K/C163A): as the sequence (Q14116 other isoform, or with tags, fused parts or gaps C38A K53A C76A C127A C38A K53A C76A C127A) above, with K6E, V11I, A53K, S105K counted along it

[25] = molecular target: IL-18 variant SEQ ID NO: 6 with 30 kDa PEG (E6K, V11I, C38A, K53A, T63A, C68A, C76A, C127A, D98C-30kPEG) (human) (UniProt Q14116); assay: cell-based or functional assay
[26] = molecular target: IL-18 variant SEQ ID NO: 204 (V11I, C38A, K53A, C76A, C127A) (human) (UniProt Q14116); assay: cell-based or functional assay
IL-18 variant SEQ ID NO: 204 (V11I, C38A, K53A, C76A, C127A) (human), sequence (Q14116 37-193 V47I/C74A/K89A/C112A/C163A): as the sequence (Q14116 other isoform, or with tags, fused parts or gaps C38A K53A C76A C127A C38A K53A C76A C127A) above, with K6E, V11I counted along it

[27] = molecular target: IL-18 variant SEQ ID NO: 227 (V11I, C38A, S55T, C76A, C127A) (human) (UniProt Q14116); assay: cell-based or functional assay
IL-18 variant SEQ ID NO: 227 (V11I, C38A, S55T, C76A, C127A) (human), sequence (Q14116 37-193 V47I/C74A/S91T/C112A/C163A): as the sequence (Q14116 other isoform, or with tags, fused parts or gaps C38A K53A C76A C127A C38A K53A C76A C127A) above, with K6E, V11I, A53K, S55T counted along it

[28] = molecular target: IL-18 variant SEQ ID NO: 9 (E6K, C38A, K53A, C68A, D98C) (human) (UniProt Q14116); assay: cell-based or functional assay
IL-18 variant SEQ ID NO: 9 (E6K, C38A, K53A, C68A, D98C) (human), sequence (Q14116 other isoform, or with tags, fused parts or gaps C38A K53A C68A D98C C38A K53A C68A D98C): as the sequence (Q14116 other isoform, or with tags, fused parts or gaps C38A K53A C76A C127A C38A K53A C76A C127A) above, with C68A, A76C, D98C, A127C counted along it

[29] = molecular target: IL-18 variant SEQ ID NO: 11 (E6K, V11I, C38A, K53A, C76A, C127A) (human) (UniProt Q14116); assay: cell-based or functional assay
IL-18 variant SEQ ID NO: 11 (E6K, V11I, C38A, K53A, C76A, C127A) (human), sequence (Q14116 other isoform, or with tags, fused parts or gaps V11I C38A K53A C76A C127A V11I C38A K53A C76A C127A): as the sequence (Q14116 other isoform, or with tags, fused parts or gaps C38A K53A C76A C127A C38A K53A C76A C127A) above, with V11I counted along it

[30] = molecular target: IL-18 variant SEQ ID NO: 4 with 30 kDa PEG (E6K, C38A, K53A, C68A, M86C-30kPEG) (human) (UniProt Q14116); assay: cell-based or functional assay
IL-18 variant SEQ ID NO: 4 with 30 kDa PEG (E6K, C38A, K53A, C68A, M86C-30kPEG) (human), sequence (Q14116 other isoform, or with tags, fused parts or gaps C38A K53A C68A M86C C38A K53A C68A M86C): as the sequence (Q14116 other isoform, or with tags, fused parts or gaps C38A K53A C76A C127A C38A K53A C76A C127A) above, with C68A, A76C, M86C, A127C counted along it

Native IL-18 wild-type (SEQ ID NO: 1, native sequence) (human), sequence (Q14116 37-193): as the sequence (Q14116 other isoform, or with tags, fused parts or gaps C38A K53A C76A C127A C38A K53A C76A C127A) above, with K6E, A38C, A53K, A76C, A127C counted along it
IL-18 variant SEQ ID NO: 221 (V11I, C38A, K53A, C76A, D110A, C127A) (human), sequence (Q14116 37-193 V47I/C74A/K89A/C112A/D146A/C163A): as the sequence (Q14116 other isoform, or with tags, fused parts or gaps C38A K53A C76A C127A C38A K53A C76A C127A) above, with K6E, V11I, D110A counted along it
IL-18 variant SEQ ID NO: 207 (V11I, C38A, M51G, K53A, C76A, C127A) (human), sequence (Q14116 37-193 V47I/C74A/M87G/K89A/C112A/C163A): as the sequence (Q14116 other isoform, or with tags, fused parts or gaps C38A K53A C76A C127A C38A K53A C76A C127A) above, with K6E, V11I, M51G counted along it

In the case of “Fc fused human IL-18BP isoform a (IL-18BPa) (from UniProt O95998 31-194) (Fc fusion)”, the IC50 (read off the curve); IFNγ production in the NK-92 assay (IFNg, ng/mL) [1] is reported as 1 nM, the IC50 of IL-18BPa-Fc on IFNγ secretion, NK-92 [2] is reported as 3.18 nM and the IC50 of IL-18BPa-Fc on IFNγ secretion, NK-92 [3] is reported as 733 nM. It also gave an IC50 of IL-18BPa-Fc on IFNγ secretion, NK-92 [4] of 286 nM, an IC50 of IL-18BPa-Fc on IFNγ secretion, NK-92 [5] of 5.05 nM and an IC50 of IL-18BPa-Fc on IFNγ secretion, NK-92 [6] of 12.2 nM. The IC50 of IL-18BPa-Fc on IFNγ secretion, NK-92 [7] was 284 nM, the IC50 of IL-18BPa-Fc on IFNγ secretion, NK-92 [8] was 105 nM and the IC50 of IL-18BPa-Fc on IFNγ secretion, NK-92 [9] was 654 nM. The IC50 of IL-18BPa-Fc on IFNγ secretion, NK-92 [10] was 146 nM, the IC50 of IL-18BPa-Fc on IFNγ secretion, NK-92 [11] was 2.22 nM and the IC50 of IL-18BPa-Fc on IFNγ secretion, NK-92 [12] was 0.809 nM. The IC50 of IL-18BPa-Fc on IFNγ secretion, NK-92 [13] was 0.681 nM, the IC50 of IL-18BPa-Fc on IFNγ secretion, NK-92 [14] was 3.98 nM and the IC50 of IL-18BPa-Fc on IFNγ secretion, NK-92 [15] was 7.29 nM. The IC50 of IL-18BPa-Fc on IFNγ secretion, NK-92 [16] was 67.1 nM, the IC50 of IL-18BPa-Fc on IFNγ secretion, NK-92 [17] was 41.8 nM and the IC50 of IL-18BPa-Fc on IFNγ secretion, NK-92 [18] was 0.885 nM. The IC50 of IL-18BPa-Fc on IFNγ secretion, NK-92 [19] was 829 nM, the IC50 of IL-18BPa-Fc on IFNγ secretion, NK-92 [20] was 1.81 nM and the IC50 of IL-18BPa-Fc on IFNγ secretion, NK-92 [21] was 358 nM. For the same substance, the IC50 of IL-18BPa-Fc on IFNγ secretion, NK-92 [22] was 0.781 nM, the IC50 of IL-18BPa-Fc on IFNγ secretion, NK-92 [23] was 34.3 nM and the IC50 of IL-18BPa-Fc on IFNγ secretion, NK-92 [24] was 0.176 nM. The IC50 of IL-18BPa-Fc on IFNγ secretion, NK-92 [25] was 35.5 nM, the IC50 of IL-18BPa-Fc on IFNγ secretion, NK-92 [26] was 1.62 nM and the IC50 of IL-18BPa-Fc on IFNγ secretion, NK-92 [27] was 0.44 nM. The IC50 of IL-18BPa-Fc on IFNγ secretion, NK-92 [28] was 1000 nM, the IC50 of IL-18BPa-Fc on IFNγ secretion, NK-92 [29] was 532 nM and the IC50 of IL-18BPa-Fc on IFNγ secretion, NK-92 [30] was 126 nM.
